Laboratory results as given in article PMC3123277, “Engineering Klebsiella sp. 601 multicopper oxidase enhances the catalytic efficiency towards phenolic substrates” (BMC Biochemistry, 2011).

How the values were obtained:
[1] = target: Klebsiella sp. 601 MCO (multicopper oxidase) (Klebsiella sp. 601, UniProt B0FMT2, E106F); details: read-out: E106F; pH 5.0, 50 mM acetate, 37°C, 0.2 mM CuSO4
From the text: (§1) spectrophotometric oxidation assay, Lineweaver-Burk on Klebsiella sp. 601 MCO (multicopper oxidase)

[2] = target: Klebsiella sp. 601 MCO (multicopper oxidase) (Klebsiella sp. 601, UniProt B0FMT2, R361G/M362G/L367G/M368G/E369P/M376K/M379P); details: read-out: α351-380M; pH 5.0, 50 mM acetate, 37°C, 0.2 mM CuSO4
From the text: as §1

[3] = target: T1, Klebsiella sp. 601 MCO (multicopper oxidase) (Klebsiella sp. 601, UniProt B0FMT2); test: spectrophotometric oxidation assay, Lineweaver-Burk; type: biochemical; details: pH 5.0, 50 mM acetate, 37°C, 0.2 mM CuSO4; read-out: Wild-type
T1 sequence (B0FMT2 29-536): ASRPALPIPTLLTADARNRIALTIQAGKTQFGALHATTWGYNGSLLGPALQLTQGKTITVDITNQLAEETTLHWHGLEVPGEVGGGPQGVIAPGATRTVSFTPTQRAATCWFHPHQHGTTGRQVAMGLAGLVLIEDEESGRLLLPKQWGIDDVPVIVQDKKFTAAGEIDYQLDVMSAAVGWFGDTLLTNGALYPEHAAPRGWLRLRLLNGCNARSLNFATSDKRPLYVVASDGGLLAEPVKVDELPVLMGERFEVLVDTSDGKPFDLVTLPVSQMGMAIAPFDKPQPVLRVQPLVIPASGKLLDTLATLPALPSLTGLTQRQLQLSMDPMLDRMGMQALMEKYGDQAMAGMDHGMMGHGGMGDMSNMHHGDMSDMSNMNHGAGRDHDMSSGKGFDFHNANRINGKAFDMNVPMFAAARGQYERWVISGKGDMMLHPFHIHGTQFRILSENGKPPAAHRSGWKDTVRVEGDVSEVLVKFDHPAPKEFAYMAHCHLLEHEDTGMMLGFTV
From the text: as §1

[4] = test system: CCn1c(=NN=c2sc3cc(S(=O)(=O)O)ccc3n2CC)sc2cc(S(=O)(=O)O)ccc21; test: purified protein; details: pH 3.6, 50 mM acetic acid-sodium acetate, 37°C, 0.2 mM CuSO4
[5] = substrate: CCn1c(=NN=c2sc3cc(S(=O)(=O)O)ccc3n2CC)sc2cc(S(=O)(=O)O)ccc21; test: spectrophotometric oxidation assay, Lineweaver-Burk; type: biochemical, Klebsiella sp. 601; details: pH 3.0, 50 mM acetic acid-sodium acetate, 37°C, 0.2 mM CuSO4, pH 3.0
From the text: as §1

[6] = substrate: COc1cc(C=NN=Cc2cc(OC)c(O)c(OC)c2)cc(OC)c1O; test: as above; type: biochemical, Klebsiella sp. 601; details: pH 6.8, 50 mM phosphate, 37°C, 0.2 mM CuSO4, pH 6.8
From the text: as §1

COc1cccc(OC)c1O [DMP]
Km [1]: 1180 µM | Km [2]: 639 ± 17 µM | Km [3]: 2850 µM

Klebsiella sp. 601 MCO (multicopper oxidase) (Klebsiella sp. 601; E106F)
Km [4]: 159 ± 1.0 µM | kcat/Km [4]: 2.05e+08 M⁻¹ s⁻¹

Klebsiella sp. 601 MCO (multicopper oxidase) (Klebsiella sp. 601; E369P/L367G/M362G/M368G/M376K/M379P/R361G)
Km [4]: 284 ± 6.2 µM

B1: Klebsiella sp. 601 MCO (multicopper oxidase) (Klebsiella sp. 601) (protein)
chain: T1 sequence (B0FMT2 29-536)
Km [5]: 539 ± 5.0 µM | kcat/Km [5]: 1.27e+08 M⁻¹ s⁻¹ | Km [6]: 11.67 ± 0.2 µM | kcat [6]: 10.8 ± 0.1 s⁻¹ | kcat/Km [6]: 930000 M⁻¹ s⁻¹
